The record followed here is patent US20030119090.

Data set [1] concerns the target T1, Cbz-Thr(αManα1,2Man)-Val-OMe (Compound 11).
T1 chain: TV

For data set [2], the target named is T2, Cbz-Thr(α-Man)-Val-Gly-Ala-NH2 (Compound 9).
T2 chain: TVGA

Data set [3] has as its target T3, Boc-Tyr-Thr(α-Man)-Val-OMe (Compound 10).
T3 chain: YTV

Data set [4] has as its target T4, Cbz-Thr(α-Man)-Val-OMe (Compound 7).
T4 chain: TV

For data set [5], the target named is T5, Thr(α-Man)-Val-OMe (Compound 8).
T5 chain: TV

B1: recombinant α1,2-mannosyltransferase (soluble catalytic domain, protein sequence 31-442 of α1,2-ManT from S. cerevisiae, expressed from pManflag20 in the E. … (protein)
chain: RTQQYIPSSISAAFDFTSGSISPEQQVISEENDAKKLEQSALNSEASEDSEAMDEESKALKAAAEKADAPIDTKTTMDYITPSFANKAGKPKACYVTLVRNKELKGLLSSIKYVENKINKKFPYPWVFLNDEPFTEEFKEAVTKAVSSEVKFGILPKEHWSYPEWINQTKAAEIRADAATKYIYGGSESYRHMCRYQSGFFWRHELLEEYDWYWRVEPDIKLYCDINYDVFKWMQENEKVYGFTVSIHEYEVTIPTLWQTSMDFIKKNPEYLDENNLMSFLSNDNGKTYNLCHFWSNFEIANLNLWRSPAYREYFDTLDHQGGFFYERWGDAPVHSIAAALFLPKDKIHYFSDIGYHHPPYDNCPLDKEVYNSNNCECDQGNDFTFQGYSCGKEYYDAQGLVKPKNWKKFRE
As for B1, the results for the Km (acceptor), mannosyl transfer reaction in data set [1], in data set [3] and in data set [4] were 26 mM, 0.7 mM and 7.8 mM, respectively. Besides, the Vrelative (ratio of Vmax, ManαOMe = 1.0), mannosyl transfer from GDP-Man to acceptor came out at 0.17 in data set [1]; 0.55 in data set [2]; 0.35 in data set [3]; 0.71 in data set [4]; 0.68 in data set [5]. For the same protein, in data set [3], the “Km, fold lower than that of Compound 7” value is given as “This value is 10 times less than that of Compound 7”. In addition, in data set [3], the “Km, fold lower than that of ManαOMe (Compound 1)” value is listed as 80 times smaller than that of ManαOMe (Compound 1).
